This note sets out measurements from publication PMC8050316, “Tissue plasminogen activator is a ligand of cation-independent mannose 6-phosphate receptor and consists of glycoforms that contain mannose 6-phosphate” (Scientific Reports, 2021).

Assay [1] concerns the target human cation-independent mannose 6-phosphate receptor domains 1-5 (human) (UniProt P11717). The experiment in a line: SPR; C-terminally biotinylated human CI-MPR d1-5 on a streptavidin chip; tPA injected at various concentrations, one site specific binding fit; tPA at 120 nM with 5 mM M6P or 5 mM G6P.
The target of assay [2] is human cation-independent mannose 6-phosphate receptor domains 1-15 (entire extracellular region) (human) (UniProt P11717). Briefly: SPR; biotinylated human CI-MPR d1-15 on a streptavidin-coupled CM5 chip, tPA injected at various concentrations, 25 °C, 40 µl/min for 2 min, response at equilibrium fit with a one site specific binding model. For orientation: In SPR one partner is held on a chip, and binding of the other changes the refractive index at the surface.

In assay [3] the target is bovine cation-independent mannose 6-phosphate receptor domains 1-15 (entire extracellular region) (bovine) (UniProt P08169). Briefly: SPR; bovine CI-MPR d1-15 amine coupled to a CM5 chip, tPA injected at various concentrations, 25 °C, response at equilibrium fit with a one site specific binding model.
Assay [4] has the same target. The experiment in a line: SPR; bovine CI-MPR d1-15 amine coupled; mock- or phosphatase-treated proteins injected in 10 mM HEPES, 150 mM sodium acetate, 5 mM β-glycerophosphate, 0.005% polysorbate-20, pH 7.4; tPA at 80 nM with 5 mM M6P, 5 mM G6P or no inhibitor.
Assay [5] addresses T1, bovine cation-independent mannose 6-phosphate receptor domains 1-15 (entire extracellular region) (bovine, UniProt P08169 47-2296).
T1 construct: cation-independent mannose 6-phosphate receptor (CI-MPR), bovine, domains 1-15, amino acids 47-2296; also called bovine CI-MPR d1-15; CI-MPR d1-15; source: Sf9, secreted, purified (Ni-NTA, Sephacryl S-300)
The experiment in a line: SPR; recombinant tPA, native tPA or β-glucuronidase amine coupled; bovine CI-MPR d1-15 at 20 nM injected after preincubation with M6P, G6P or αMeMan (0.1, 1.0, 5.0 mM). Particulars: both partners purified.

Chain of human cation-independent mannose 6-phosphate receptor domains 1-5 (human) (P11717 36-763): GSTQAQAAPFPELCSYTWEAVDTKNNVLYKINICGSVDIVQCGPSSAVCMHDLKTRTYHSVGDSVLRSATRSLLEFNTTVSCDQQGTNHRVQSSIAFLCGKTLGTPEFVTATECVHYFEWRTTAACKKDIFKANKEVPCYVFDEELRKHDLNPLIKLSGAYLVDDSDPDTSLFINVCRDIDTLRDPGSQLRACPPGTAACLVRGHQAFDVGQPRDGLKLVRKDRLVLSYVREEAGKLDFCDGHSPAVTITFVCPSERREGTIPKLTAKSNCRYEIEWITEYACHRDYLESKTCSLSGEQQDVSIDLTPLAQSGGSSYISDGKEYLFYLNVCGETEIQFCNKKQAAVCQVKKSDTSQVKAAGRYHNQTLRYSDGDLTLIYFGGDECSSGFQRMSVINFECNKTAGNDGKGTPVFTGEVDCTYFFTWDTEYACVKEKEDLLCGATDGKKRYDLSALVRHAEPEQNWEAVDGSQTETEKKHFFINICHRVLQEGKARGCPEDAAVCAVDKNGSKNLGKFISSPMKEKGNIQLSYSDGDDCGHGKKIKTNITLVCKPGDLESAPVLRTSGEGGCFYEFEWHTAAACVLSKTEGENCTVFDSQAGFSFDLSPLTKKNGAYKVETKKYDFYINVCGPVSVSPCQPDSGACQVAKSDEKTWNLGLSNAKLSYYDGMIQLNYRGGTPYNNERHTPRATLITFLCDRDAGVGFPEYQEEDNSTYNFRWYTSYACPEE
Chain of bovine cation-independent mannose 6-phosphate receptor domains 1-15 (entire extracellular region) (bovine) (P08169 47-2296): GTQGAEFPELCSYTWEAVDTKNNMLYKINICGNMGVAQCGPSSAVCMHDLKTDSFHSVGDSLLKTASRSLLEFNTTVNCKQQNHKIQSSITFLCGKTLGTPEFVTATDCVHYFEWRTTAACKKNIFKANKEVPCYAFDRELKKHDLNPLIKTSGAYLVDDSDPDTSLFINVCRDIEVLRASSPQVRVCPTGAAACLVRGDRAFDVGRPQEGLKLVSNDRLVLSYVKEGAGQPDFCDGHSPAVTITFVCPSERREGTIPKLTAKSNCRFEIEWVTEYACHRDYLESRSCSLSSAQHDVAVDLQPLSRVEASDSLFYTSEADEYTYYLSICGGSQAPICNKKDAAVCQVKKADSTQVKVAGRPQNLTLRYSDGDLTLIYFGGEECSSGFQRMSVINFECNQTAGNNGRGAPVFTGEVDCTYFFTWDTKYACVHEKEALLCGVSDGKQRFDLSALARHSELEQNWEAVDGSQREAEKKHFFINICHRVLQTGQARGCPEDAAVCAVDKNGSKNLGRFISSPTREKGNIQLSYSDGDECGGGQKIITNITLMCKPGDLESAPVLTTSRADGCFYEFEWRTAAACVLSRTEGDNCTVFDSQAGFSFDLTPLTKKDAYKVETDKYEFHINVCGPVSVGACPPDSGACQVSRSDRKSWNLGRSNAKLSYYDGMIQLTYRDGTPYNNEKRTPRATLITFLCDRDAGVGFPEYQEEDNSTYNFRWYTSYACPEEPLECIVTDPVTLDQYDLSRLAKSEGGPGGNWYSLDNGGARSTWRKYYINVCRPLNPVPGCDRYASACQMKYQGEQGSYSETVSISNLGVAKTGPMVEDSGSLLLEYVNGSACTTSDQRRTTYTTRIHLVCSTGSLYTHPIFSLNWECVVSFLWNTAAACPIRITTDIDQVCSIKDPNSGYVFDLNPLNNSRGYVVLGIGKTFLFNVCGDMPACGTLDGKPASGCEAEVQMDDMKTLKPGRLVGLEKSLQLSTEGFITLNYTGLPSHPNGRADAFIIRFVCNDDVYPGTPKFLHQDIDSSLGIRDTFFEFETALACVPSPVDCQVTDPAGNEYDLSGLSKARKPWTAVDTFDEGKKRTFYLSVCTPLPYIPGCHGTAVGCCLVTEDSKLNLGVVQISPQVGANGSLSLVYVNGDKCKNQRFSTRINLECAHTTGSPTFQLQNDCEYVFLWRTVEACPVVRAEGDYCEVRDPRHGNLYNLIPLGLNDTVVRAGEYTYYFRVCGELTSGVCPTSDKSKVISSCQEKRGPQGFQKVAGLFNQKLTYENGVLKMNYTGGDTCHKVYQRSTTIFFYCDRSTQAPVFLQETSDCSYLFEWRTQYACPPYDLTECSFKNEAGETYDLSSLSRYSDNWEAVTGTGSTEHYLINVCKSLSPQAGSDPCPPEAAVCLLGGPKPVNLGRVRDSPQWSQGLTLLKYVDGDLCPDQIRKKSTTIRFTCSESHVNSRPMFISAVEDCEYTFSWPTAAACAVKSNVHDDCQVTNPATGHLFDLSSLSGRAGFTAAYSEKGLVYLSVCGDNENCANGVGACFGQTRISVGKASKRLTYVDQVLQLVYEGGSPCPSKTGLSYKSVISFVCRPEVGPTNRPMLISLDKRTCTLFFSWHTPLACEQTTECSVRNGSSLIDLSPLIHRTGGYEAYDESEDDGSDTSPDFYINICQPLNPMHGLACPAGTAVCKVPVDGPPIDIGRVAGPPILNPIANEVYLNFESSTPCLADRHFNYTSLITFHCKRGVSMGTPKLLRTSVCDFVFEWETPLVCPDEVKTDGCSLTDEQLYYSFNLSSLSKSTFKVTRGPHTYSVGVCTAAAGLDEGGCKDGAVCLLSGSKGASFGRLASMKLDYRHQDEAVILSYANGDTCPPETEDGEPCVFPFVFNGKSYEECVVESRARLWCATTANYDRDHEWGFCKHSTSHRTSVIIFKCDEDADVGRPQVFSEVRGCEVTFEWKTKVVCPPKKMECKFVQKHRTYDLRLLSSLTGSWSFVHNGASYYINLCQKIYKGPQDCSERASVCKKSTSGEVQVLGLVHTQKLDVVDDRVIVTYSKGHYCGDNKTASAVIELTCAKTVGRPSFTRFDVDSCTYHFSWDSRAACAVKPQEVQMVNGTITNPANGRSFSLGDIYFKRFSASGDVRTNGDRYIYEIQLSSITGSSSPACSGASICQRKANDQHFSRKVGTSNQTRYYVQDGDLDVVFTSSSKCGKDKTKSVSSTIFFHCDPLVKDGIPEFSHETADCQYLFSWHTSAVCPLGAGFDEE
T1 sequence (P08169 47-2296): as above

In general, Kd refers to a measure of binding affinity in units of concentration. Low values mean a tighter complex, high ones a looser complex. With “native tissue plasminogen activator isolated from a human melanoma cell line (enzyme)”, the values for the Kd in assay [1], in assay [2] and in assay [3] were 155 nM, 81 nM and 214 nM, respectively. The same molecule showed a percent decrease in response at equilibrium with 5 mM G6P in assay [1] of 21%. In assay [1], this molecule showed a percent decrease in response at equilibrium with 5 mM M6P of 39%.

In assay [1], “recombinant human tissue plasminogen activator (Cathflo Activase, alteplase) (enzyme)” returned a Kd of 134 nM, a percent decrease in response at equilibrium with 5 mM G6P of 20% and a percent decrease in response at equilibrium with 5 mM M6P of 40%. Besides, in assay [4], the percent decrease in average response with 5 mM G6P stood at 26% and the percent decrease in average response with 5 mM M6P was 55%. In assay [2], this molecule registered a Kd of 23 nM. Besides, the Kd in assay [3] amounted to 108 nM.

Consider “phosphatase-treated recombinant tissue plasminogen activator (enzyme)”, for which, in assay [4], the percent decrease in response with 5 mM G6P was found to be 12% and the percent decrease in response with 5 mM M6P came out at 13%.

B1: human β-glucuronidase (enzyme, UniProt P08236 23-651, looked up)
chain: LQGGMLYPQESPSRECKELDGLWSFRADFSDNRRRGFEEQWYRRPLWESGPTVDMPVPSSFNDISQDWRLRHFVGWVWYEREVILPERWTQDLRTRVVLRIGSAHSYAIVWVNGVDTLEHEGGYLPFEADISNLVQVGPLPSRLRITIAINNTLTPTTLPPGTIQYLTDTSKYPKGYFVQNTYFDFFNYAGLQRSVLLYTTPTTYIDDITVTTSVEQDSGLVNYQISVKGSNLFKLEVRLLDAENKVVANGTGTQGQLKVPGVSLWWPYLMHERPAYLYSLEVQLTAQTSLGPVSDFYTLPVGIRTVAVTKSQFLINGKPFYFHGVNKHEDADIRGKGFDWPLLVKDFNLLRWLGANAFRTSHYPYAEEVMQMCDRYGIVVIDECPGVGLALPQFFNNVSLHHHMQVMEEVVRRDKNHPAVVMWSVANEPASHLESAGYYLKMVIAHTKSLDPSRPVTFVSNSNYAADKGAPYVDVICLNSYYSWYHDYGHLELIQLQLATQFENWYKKYQKPIIQSEYGAETIAGFHQDPPLMFTEEYQKSLLEQYHLGLDQKRRKYVVGELIWNFADFMTEQSPTRVLGNKKGIFTRQRQPKSAAFLLRERYWKIANETRYPHSVAKSQCLENSLFT
modifications: M6P on its N-linked glycans
notes: β-glucuronidase, human, lysosomal enzyme; also called mock-treated β-glucuronidase
For B1, the binding result in assay [5] was “binds”.
